Results from patent publication US20040002442A1 (Bayer, published 2004).
Ends that are not written are not given here. * marks the point of attachment. Palmitoyl = CCCCCCCCCCCCCCCC(=O)*

Tests used:
[1] = target: T1, GLP-1 receptor present in the plasma membranes isolated from RINm5F cells (UniProt P32301 22-463, limits assumed); test: cell-based or functional assay
T1 sequence (looked up): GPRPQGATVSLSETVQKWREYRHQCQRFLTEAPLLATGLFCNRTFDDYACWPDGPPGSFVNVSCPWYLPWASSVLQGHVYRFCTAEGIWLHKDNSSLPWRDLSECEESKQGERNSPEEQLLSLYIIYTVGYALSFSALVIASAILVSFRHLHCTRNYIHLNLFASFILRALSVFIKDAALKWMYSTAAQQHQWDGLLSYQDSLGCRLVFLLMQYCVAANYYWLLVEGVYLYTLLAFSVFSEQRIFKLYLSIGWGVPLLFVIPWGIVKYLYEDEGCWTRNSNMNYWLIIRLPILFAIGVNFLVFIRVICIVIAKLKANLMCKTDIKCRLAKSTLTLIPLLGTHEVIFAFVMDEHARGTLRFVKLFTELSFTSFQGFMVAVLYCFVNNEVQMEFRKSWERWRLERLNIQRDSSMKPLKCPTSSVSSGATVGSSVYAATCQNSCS

[2] = target: T2, glucagon receptor present in the plasma membranes isolated from rat liver (rat, UniProt P30082 27-485); test: cell-based or functional assay
[3] = target: T1, GLP-1 receptor present in the plasma …; test: 125I-GLP-1 displacement, RINm5F plasma membranes
Procedure: (§1) Competitive binding of some polypeptides of the invention to RINm5F cell plasma membranes was measured as follows. Ninety-six-well GF/C filtration plates (Millipore, Bedford, Ma.) were blocked with 0.3% PEI for at least one hour and washed twice with binding buffer consisting of 20 mM Tris, 2 mM EDTA, pH 7.5, 1 mg/ml BSA, and 1 mg/ml bacitracin. […] The plates were dried, scintillant was added to each well, and cpm per well determined using a Wallac Microbeta counter.

[4] = target: T2, glucagon receptor present in the plasma …; test: 125I-glucagon displacement, rat liver plasma membranes
Procedure: as §1, with “rat liver” for “RINm5F cell”, “0.1%” for “0.3%”

T2 sequence (P30082 27-485): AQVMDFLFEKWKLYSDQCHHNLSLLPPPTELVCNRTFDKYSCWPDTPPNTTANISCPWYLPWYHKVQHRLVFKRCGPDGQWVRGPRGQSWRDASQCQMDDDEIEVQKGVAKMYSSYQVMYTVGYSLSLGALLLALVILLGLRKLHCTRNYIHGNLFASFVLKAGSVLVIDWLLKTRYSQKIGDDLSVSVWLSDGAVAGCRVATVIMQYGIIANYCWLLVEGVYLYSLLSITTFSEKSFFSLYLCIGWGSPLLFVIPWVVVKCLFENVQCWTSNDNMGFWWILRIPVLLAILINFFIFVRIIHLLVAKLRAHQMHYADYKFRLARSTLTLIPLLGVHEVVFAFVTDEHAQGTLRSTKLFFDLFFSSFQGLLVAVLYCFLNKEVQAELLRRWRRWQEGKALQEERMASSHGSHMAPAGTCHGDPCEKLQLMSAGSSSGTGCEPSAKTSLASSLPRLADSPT

B1: G87 (peptide)
peptide: HSQGTFTSDYAKYLDARRAK(Palmitoyl)EFIAWLVKGR-NH2
modifications: N-terminus assumed
SMILES: CCCCCCCCCCCCCCCC(=O)NCCCC[C@H](NC(=O)[C@H](C)NC(=O)[C@H](CCCNC(=N)N)NC(=O)[C@H](CCCNC(=N)N)NC(=O)[C@H](C)NC(=O)[C@H](CC(=O)O)NC(=O)[C@H](CC(C)C)NC(=O)[C@H](Cc1ccc(O)cc1)NC(=O)[C@H](CCCCN)NC(=O)[C@H](C)NC(=O)[C@H](Cc1ccc(O)cc1)NC(=O)[C@H](CC(=O)O)NC(=O)[C@H](CO)NC(=O)[C@@H](NC(=O)[C@H](Cc1ccccc1)NC(=O)[C@@H](NC(=O)CNC(=O)[C@H](CCC(N)=O)NC(=O)[C@H](CO)NC(=O)[C@@H](N)Cc1c[nH]cn1)[C@@H](C)O)[C@@H](C)O)C(=O)N[C@@H](CCC(=O)O)C(=O)N[C@@H](Cc1ccccc1)C(=O)N[C@H](C(=O)N[C@@H](C)C(=O)N[C@@H](Cc1c[nH]c2ccccc12)C(=O)N[C@@H](CC(C)C)C(=O)N[C@H](C(=O)N[C@@H](CCCCN)C(=O)NCC(=O)N[C@@H](CCCNC(=N)N)C(N)=O)C(C)C)[C@@H](C)CC
% GLP1 max, cAMP SPA in RINm5F cells [1]: 100%
Relative Potency (%), cAMP SPA in RINm5F cells [1]: 6.1%
% Inhib glucagon stimulated cAMP increase (10 uM peptide, rat hepatocytes) [2]: 59%
IC50 [3]: 98.6 nM
IC50 [4]: 620 nM

B2: G85 (peptide)
peptide: HSQGTFTSDYARYLDARRAREFIAWLVRGRGK
% GLP1 max, cAMP SPA in RINm5F cells [1]: 95.8%
Relative Potency (%), cAMP SPA in RINm5F cells [1]: 64.5%
% Inhib glucagon stimulated cAMP increase (10 uM peptide, rat hepatocytes) [2]: 27.9%
IC50 [3]: 1.5 nM
IC50 [4]: 16.1 nM
